Source: the supplement of paper PMC7877785
± gives the uncertainty stated by the source.

Assay: self-splicing fitness, log relative to wild type (ln ratio); higher = more splicing; Tetrahymena group I intron in knt gene, E. coli kanamycin selection, DiMSum; sequences stand for … in CUCUCU…GGAGGGAAAAGUUAUCAGGCAUGCACCUGGUAGCUAGUCUUUAAACCAAUAGAUUGCAUCGGUUUAAAAGGCAAGACCGUCAAAUUGCGGGAAAGGGGUCAACAGCCGUUCAGUACCAAGUCUCAGGGGAAACUUUGAGAUGGCCUUGCAAAGGGUAUGGUAAUAAGCUGACGGACAUGGUCCUAACCACGCAGCCAAGUCCUAAGUCAACAGAUCUUCUGUUGAUAUGGAUGCAGUUCACAGACUAAAUGUCGGUCGGGGAAGAUGUAUUCUUCUCAUAAGAUAUAGUCGGACCUCUCCUUAAUGGGAGCUAGCGGAUGAAGUGAUGCAACACUGGAGCCGCUGGGAACUAAUUUGUAUGCGAAAGUAUAUUGAUUAGUUUUGGAGUACUCGUGGUCG
Method in brief: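 A randomised library covering all eight P1ex-region intron nucleotides was built with the intron in the knt kanamycin-resistance gene on pET-22b(+) and held in E. coli BL21(DE3). Cells were grown overnight at 37°C or 30°C on LB agar, with or without 25 μg/mL kanamycin, plus 100 μg/mL carbenicillin, 50 μM IPTG and 0.2% rhamnose, and pooled colonies were amplicon-sequenced on an Illumina HiSeq 2500. DiMSum fitness is the error-weighted combination of wild-type-normalised replicate fold changes, kanamycin versus none.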

| Sequence | self-splicing fitness (ln) (30 °C) | self-splicing fitness (ln) (37 °C) |
| --- | --- | --- |
| UCUCAGCAAUAUUACGCUUC | -2.92 ± 0.21 | -2.33 ± 0.28 |
| GGUAAGCAAUAUUACGAAUG | -2.23 ± 0.29 | -2.81 ± 0.36 |
| UUUGAGCAAUAUUACGAUAA | -1.25 ± 0.087 | -0.386 ± 0.095 |
| CCACAGCAAUAUUACGAACA | -2.78 ± 0.24 | -2.33 ± 0.29 |
| UACGAGCAAUAUUACGGCAA | -1.96 ± 0.24 | -0.476 ± 0.18 |
| AAAUAGCAAUAUUACGCAGA | -2.07 ± 0.26 |  |
| CUGAAGCAAUAUUACGGCAG | -0.522 ± 0.11 | -0.657 ± 0.14 |
| AUUUAGCAAUAUUACGAGGU | -3.21 ± 0.39 | -1.91 ± 0.42 |
| UCUAAGCAAUAUUACGCAGG | -2.92 ± 0.23 | -2.36 ± 0.41 |
| UCUCAGCAAUAUUACGCCAA | -2.86 ± 0.27 | -2.74 ± 0.29 |
| AGUAAGCAAUAUUACGUUAA | -2.91 ± 0.21 | -1.63 ± 0.18 |
| CCCAAGCAAUAUUACGGUUA | -2.28 ± 0.12 | -2.38 ± 0.16 |
| GGAUAGCAAUAUUACGGAUG | -3.16 ± 0.33 | -0.578 ± 0.18 |
| CGUGAGCAAUAUUACGUAUC | -1.84 ± 0.16 | -2.42 ± 0.27 |
| CGGUAGCAAUAUUACGCCAC | -3.5 ± 0.39 | -2.03 ± 0.27 |
| UACGAGCAAUAUUACGUAGC | -3.67 ± 0.46 | -1.01 ± 0.21 |
| GGGAAGCAAUAUUACGAGCA | -2.18 ± 0.32 | -0.522 ± 0.18 |
| UAGAAGCAAUAUUACGAUUA | -0.441 ± 0.08 | -0.0749 ± 0.093 |
| UGGUAGCAAUAUUACGCUAG | -2.07 ± 0.13 | -1.82 ± 0.16 |
| AUGUAGCAAUAUUACGCUAA | -1.75 ± 0.12 | -0.814 ± 0.13 |
| AGCGAGCAAUAUUACGGUUA | -1.22 ± 0.12 | -1.9 ± 0.11 |
| AACAAGCAAUAUUACGGGUG | -0.579 ± 0.047 | -0.604 ± 0.064 |
| GACAAGCAAUAUUACGCCAA | -2.03 ± 0.14 | -1.61 ± 0.12 |
| UCUAAGCAAUAUUACGAUAA | -1.46 ± 0.17 | -0.693 ± 0.2 |
| UCAAAGCAAUAUUACGAGUC | -3.79 ± 0.21 | -2.26 ± 0.22 |
| GUGCAGCAAUAUUACGGCAC | -0.83 ± 0.2 | -1.46 ± 0.24 |

| Sequence | self-splicing fitness (ln) (30 °C) | self-splicing fitness (ln) (37 °C) |
| --- | --- | --- |
| UCCAAGCAAUAUUACGCUCA | -1.03 ± 0.11 | -0.393 ± 0.13 |
| GCCCAGCAAUAUUACGCAAU | -1.23 ± 0.059 | -0.336 ± 0.069 |
| CUACAGCAAUAUUACGGACA | -1.52 ± 0.39 | -2.47 ± 0.38 |
| GGCAAGCAAUAUUACGGUGG | -2.24 ± 0.11 | -1.81 ± 0.14 |
| UAUUAGCAAUAUUACGCGGU | -3.62 ± 0.36 | -1.8 ± 0.37 |
| CAAAAGCAAUAUUACGAUGG | -0.431 ± 0.062 | -0.139 ± 0.079 |
| GCGCAGCAAUAUUACGCAGC |  | -1.32 ± 0.33 |
| AAAUAGCAAUAUUACGCAAG | -2.14 ± 0.094 | -1.13 ± 0.11 |
| AUCAAGCAAUAUUACGACCA | -0.886 ± 0.13 | 0.0541 ± 0.14 |
| GUACAGCAAUAUUACGGACG | -3.05 ± 0.14 | -0.547 ± 0.12 |
| UGUCAGCAAUAUUACGCCGU | -1.42 ± 0.13 | -1.12 ± 0.15 |
| CCCAAGCAAUAUUACGUCCA | -1.96 ± 0.14 | -2.45 ± 0.23 |
| AAUCAGCAAUAUUACGACUC | -0.0136 ± 0.086 | 0.129 ± 0.11 |
| CUAUAGCAAUAUUACGCCUG | -0.141 ± 0.15 | -0.439 ± 0.14 |
| UGUAAGCAAUAUUACGACGC | -2.61 ± 0.36 | -1.61 ± 0.3 |
| ACCUAGCAAUAUUACGUGAA | -2.1 ± 0.097 | -1.18 ± 0.12 |
| UCUUAGCAAUAUUACGUUAC |  | -2.83 ± 0.31 |
| UUGGAGCAAUAUUACGCGUU | -2.97 ± 0.47 | -2.47 ± 0.34 |
| AAGGAGCAAUAUUACGCGGU | -3.56 ± 0.26 | -1.37 ± 0.26 |
| AACGAGCAAUAUUACGUAUC | -3.69 ± 0.4 | -3.55 ± 0.46 |
| UACAAGCAAUAUUACGACGG | -0.767 ± 0.059 | -0.442 ± 0.079 |
| UACUAGCAAUAUUACGGGAG | -2.3 ± 0.11 | -1.19 ± 0.1 |
| CUCCAGCAAUAUUACGCAAG | -3.52 ± 0.26 | -1.41 ± 0.18 |
| GCGCAGCAAUAUUACGGUGA | -0.545 ± 0.066 | -0.107 ± 0.086 |
| CCGCAGCAAUAUUACGCGUC | -3 ± 0.13 | -3.01 ± 0.23 |
| CCCUAGCAAUAUUACGCACU | -2.43 ± 0.15 | -2.64 ± 0.24 |

| Sequence | self-splicing fitness (ln) (30 °C) | self-splicing fitness (ln) (37 °C) |
| --- | --- | --- |
| UAAGAGCAAUAUUACGUCGC |  | -3.39 ± 0.37 |
| GUCUAGCAAUAUUACGGCCU | -2.09 ± 0.19 | -1.19 ± 0.16 |
| GGAGAGCAAUAUUACGGAUA | -4.36 ± 0.46 | -2.05 ± 0.24 |
| GGUUAGCAAUAUUACGCGGU | -2.85 ± 0.49 | -2.36 ± 0.35 |
| GACGAGCAAUAUUACGGCAA | -1.91 ± 0.2 | -0.607 ± 0.14 |
| AAGAAGCAAUAUUACGCUAA | -1.69 ± 0.14 | -0.682 ± 0.15 |
| GAGGAGCAAUAUUACGUCUC |  | -0.811 ± 0.49 |
| CAUAAGCAAUAUUACGAAGC | -3.09 ± 0.44 |  |
| GCCGAGCAAUAUUACGAUGA | -2.38 ± 0.12 | -1.28 ± 0.1 |
| AUCUAGCAAUAUUACGCCAA |  | -0.995 ± 0.48 |
| GCCGAGCAAUAUUACGAGGG | -3.58 ± 0.27 | -1.91 ± 0.22 |
| UCCCAGCAAUAUUACGGCCU | -2.43 ± 0.16 | -0.901 ± 0.17 |
| AUGGAGCAAUAUUACGUGAG | -2.31 ± 0.14 | -2.09 ± 0.15 |
| UGAAAGCAAUAUUACGUCAA | -0.68 ± 0.12 | -1.31 ± 0.12 |
| UCGUAGCAAUAUUACGGGAG | -2.85 ± 0.2 | -3.28 ± 0.25 |
| AUCCAGCAAUAUUACGACGA | -0.497 ± 0.14 | 0.0611 ± 0.12 |
| UAGCAGCAAUAUUACGCAGA | -1.67 ± 0.14 | -1.33 ± 0.088 |
| GGGCAGCAAUAUUACGGGAU | -4.22 ± 0.42 | -1.2 ± 0.17 |
| CUGUAGCAAUAUUACGGCAA | -3.11 ± 0.39 |  |
| UUUGAGCAAUAUUACGGUUG | -1.79 ± 0.2 | -0.702 ± 0.36 |
| CUGGAGCAAUAUUACGUCUU | -3.27 ± 0.39 |  |
| GUGCAGCAAUAUUACGUCGC | -1.5 ± 0.28 | -0.148 ± 0.22 |
| UCUCAGCAAUAUUACGAGUU | -2.32 ± 0.11 | -1.13 ± 0.099 |
| AACUAGCAAUAUUACGCCGC | -2.1 ± 0.23 |  |
| CUUUAGCAAUAUUACGCUCU | -2.15 ± 0.22 | -1.3 ± 0.26 |
| ACCCAGCAAUAUUACGUAAG | -1.13 ± 0.049 | -0.47 ± 0.069 |
